Patent publication US20240360229A1 (Genentech, published 2024)

B1: anti-CCR8 1889 WT antibody (parent) (antibody, V domains shown)
VH: EVQLLESGGGLVQPGGSLRLSCAASGIDLSTYAMGWVREAPGKGLEWVGLIHRSGRTYYATWAKGRFTISKDSSKNTLYLQMNSLRAEDTAVYYCTRSYPDYSATASIWGQGTTVTVSS
VL: DIQVTQSPSSLSASVGDRVTITCQASENIANALAWYQKKPGKPPKFLIYGASNLASGVPSRFSGSGSGTDFTFTISSLQPEDIATYYCQQAYYGNSFVEGTFGGGTKVEIK
notes: The antibody has human IgG constant regions (detected with anti-human IgG)
B2: anti-CCR8 1889 S12P.I29V.Y58A (PVA) (antibody, V domains shown)
VH: EVQLLESGGGLVQPGGSLRLSCAASGIDLSTYAMGWVREAPGKGLEWVGLIHRSGRTAYATWAKGRFTISKDSSKNTLYLQMNSLRAEDTAVYYCTRSYPDYSATASIWGQGTTVTVSS
VL: DIQVTQSPSSLPASVGDRVTITCQASENVANALAWYQKKPGKPPKFLIYGASNLASGVPSRFSGSGSGTDFTFTISSLQPEDIATYYCQQAYYGNSFVEGTFGGGTKVEIK
notes: It is put together from the printed names of the heavy chain variant (Y58A) and the light chain variant (S12P.I29V)
B3: anti-CCR8 1889 S12P.I29V.E95dS.T57D.Y58A (PVSDA) (antibody, V domains shown)
VH: EVQLLESGGGLVQPGGSLRLSCAASGIDLSTYAMGWVREAPGKGLEWVGLIHRSGRDAYATWAKGRFTISKDSSKNTLYLQMNSLRAEDTAVYYCTRSYPDYSATASIWGQGTTVTVSS
VL: DIQVTQSPSSLPASVGDRVTITCQASENVANALAWYQKKPGKPPKFLIYGASNLASGVPSRFSGSGSGTDFTFTISSLQPEDIATYYCQQAYYGNSFVSGTFGGGTKVEIK
notes: It is put together from the printed names of the heavy and light chain variants; also called I29V.E95dS.Y57D.Y58A
B4: anti-CCR8 1889 S12P.I29V.E95dS (PVS) (antibody, V domains shown)
VH: EVQLLESGGGLVQPGGSLRLSCAASGIDLSTYAMGWVREAPGKGLEWVGLIHRSGRTYYATWAKGRFTISKDSSKNTLYLQMNSLRAEDTAVYYCTRSYPDYSATASIWGQGTTVTVSS
VL: DIQVTQSPSSLPASVGDRVTITCQASENVANALAWYQKKPGKPPKFLIYGASNLASGVPSRFSGSGSGTDFTFTISSLQPEDIATYYCQQAYYGNSFVSGTFGGGTKVEIK
B5: anti-CCR8 1889 S12P.I29V (PV) (antibody, V domains shown)
VH: EVQLLESGGGLVQPGGSLRLSCAASGIDLSTYAMGWVREAPGKGLEWVGLIHRSGRTYYATWAKGRFTISKDSSKNTLYLQMNSLRAEDTAVYYCTRSYPDYSATASIWGQGTTVTVSS
VL: DIQVTQSPSSLPASVGDRVTITCQASENVANALAWYQKKPGKPPKFLIYGASNLASGVPSRFSGSGSGTDFTFTISSLQPEDIATYYCQQAYYGNSFVEGTFGGGTKVEIK
B6: anti-CCR8 1889 S12P.I29V.E95dS.Y58A (PVSA) (antibody, V domains shown)
VH: EVQLLESGGGLVQPGGSLRLSCAASGIDLSTYAMGWVREAPGKGLEWVGLIHRSGRTAYATWAKGRFTISKDSSKNTLYLQMNSLRAEDTAVYYCTRSYPDYSATASIWGQGTTVTVSS
VL: DIQVTQSPSSLPASVGDRVTITCQASENVANALAWYQKKPGKPPKFLIYGASNLASGVPSRFSGSGSGTDFTFTISSLQPEDIATYYCQQAYYGNSFVSGTFGGGTKVEIK
notes: It is put together from the printed names of the heavy and light chain variants
B7: 1889/1889:40G5c anti-CCR8 TDB 2+1 A/AB (A: 1889 P, B: 40G5c) (bispecific antibody, human IgG1, kappa, L234A L235A)
heavy 1: EVQLLESGGGLVQPGGSLRLSCAASGIDLSTYAMGWVREAPGKGLEWVGLIHRSGRTYYATWAKGRFTISKDSSKNTLYLQMNSLRAEDTAVYYCTRSYPDYSATASIWGQGTTVTVSSASTKGPSVFPLAPSSKSTSGGTAALGCLVKDYFPEPVTVSWNSGALTSGVHTFPAVLQSSGLYSLKSVVTVPSSSLGTQTYICNVNHKPSNTKVDKKVEPKSCDKTHTCPPCPAPEAAGGPSVFLFPPKPKDTLMISRTPEVTCVVVDVSHEDPEVKFNWYVDGVEVHNAKTKPREEQYNSTYRVVSVLTVLHQDWLNGKEYKCKVSNKALGAPIEKTISKAKGQPREPQVYTLPPSREEMTKNQVSLWCLVKGFYPSDIAVEWESNGQPENNYKTTPPVLDSDGSFFLYSKLTVDKSRWQQGNVFSCSVMHEALHNHYTQKSLSLSPGK
light 1: DIQVTQSPSSLPASVGDRVTITCQASENIANALAWYQKKPGKPPKFLIYGASNLASGVPSRFSGSGSGTDFTFTISSLQPEDIATYYCQQAYYGNSFVEGTFGGGTKVEIKRTVAAPSVFIFPPSDEQLKSGTASVECLLNNFYPREAKVQWKVDNALQSGNSQESVTEQDSKDSTYSLSSTLTLSKADYEKHKVYACEVTHQGLSSPVTKSFNRGEC
heavy 2: EVQLLESGGGLVQPGGSLRLSCAASGIDLSTYAMGWVREAPGKGLEWVGLIHRSGRTYYATWAKGRFTISKDSSKNTLYLQMNSLRAEDTAVYYCTRSYPDYSATASIWGQGTTVTVSSASTKGPSVFPLAPSSKSTSGGTAALGCLVKDYFPEPVTVSWNSGALTSGVHTFPAVLQSSGLYSLKSVVTVPSSSLGTQTYICNVNHKPSNTKVDKKVEPKSCDKTHTEVQLVQSGAEVKKPGASVKVSCKASGYTFTNYYIHWVRKAPGQGLEWIGWIYPGDGNTKYNEKFKGRATLTADTSTSTAYLELSSLRSEDTAVYYCARDSYSNYYFDYWGQGTLVTVSSASTKGPSVFPLAPSSKSTSGGTAALGCLVKDYFPEPVTVSWNSGALTSGVHTFPAVLQSSGLYSLESVVTVPSSSLGTQTYICNVNHKPSNTKVDKKVEPKSCDKTHTCPPCPAPEAAGGPSVFLFPPKPKDTLMISRTPEVTCVVVDVSHEDPEVKFNWYVDGVEVHNAKTKPREEQYNSTYRVVSVLTVLHQDWLNGKEYKCKVSNKALGAPIEKTISKAKGQPREPQVYTLPPSREEMTKNQVSLSCAVKGFYPSDIAVEWESNGQPENNYKTTPPVLDSDGSFFLVSKLTVDKSRWQQGNVFSCSVMHEALHNHYTQKSLSLSPGK
light 2: not shown
notes: 2+1 T cell-dependent bispecific: human IgG1 Fc with LALA-PG, knob-into-hole and charge mutations

Key:
cyno CCR8 [1] = target: T1, cyno CCR8 (cynomolgus monkey, UniProt O97665 1-356 (rhesus entry)); experiment: flow cytometry titration on CHO cells stably expressing cyno CCR8 (14 h, room temperature)
T1 construct: also called cynomolgus CCR8; cyCCR8
Method: (§1) In particular, human CCR8 CHO and cyno (cynomolgus monkey) CCR8 CHO stable cell lines were stained with a dilution series of anti-CCR8 antibodies at room temperature for 14 hours, then washed twice with FACS buffer (PBS with 0.5% BSA and 0.2 mM EDTA). Samples were washed twice with FACS buffer followed by staining with goat Fab anti-hu IgG H+L (1:300, Jackson Immuno) at 4° C. for 15 minutes.

human CCR8 [2] = target: T2, human CCR8 (human, UniProt P51685 1-355); experiment: flow cytometry titration on CHO cells stably expressing human CCR8 (14 h, room temperature)
T2 construct: also CHO-hCCR8-Ga15 / CHO/hCCR8.Gna15); also called hCCR8; huCCR8
Method: as §1

[3] = target: T3, Human CD3-epsilon/delta dimer (linked by murine Fc) (human; mouse, UniProt P07766 23-126; P04234 22-105); experiment: SPR (Biacore T200, 37 C), TDB captured by anti-human Fc on CM5, huCD3ed-mIgG2a.Fc injected; 1:1 Langmuir, n=3
T3 construct: also called huCD3ed-mIgG2a.Fc; recombinant human CD3epsilon/delta; not shown: mouse IgG2a Fc

cyno CCR8 [4] = target: T1, cyno CCR8; experiment: LigandTracer real-time fluorescence, Alexa Fluor 488-labelled TDB on CHO cells expressing cyno CCR8; 1-to-2 fit, bivalent event
Method: (§2) The following day, media was aspirated and fresh media was added. The cells were incubated at room temperature for 20 minutes prior to starting the assay. The plate was loaded onto a LIGAND TRACER® Green instrument (Ridgeview Instruments AB) for real-time fluorescence measurement. […] Antibody (Ab) dissociation was recorded by aspirating the media and adding fresh media with 10 nM of unlabeled Ab to prevent rebinding of labeled Ab. The Ab dissociation was measured overnight to obtain accurate off-rates. Untransfected CHO cells were used to subtract the non-specific binding. Specific binding traces were analyzed using TraceDrawer 1.7 (Ridgeview Instruments) software and fit with a 1-to-2 with bulk binding model to determine association (kₐ) and dissociation (kd) rate constants. The equilibrium dissociation constants (KD) for each binding event were calculated as the ratio of the dissociation and association rates, kd/kₐ.
(§3) 1 million CHO cells stably expressing either human or cynomolgus CCR8 (about 60,000 and about 30,000 receptors/cell, respectively) were seeded at a concentration of 1 million cells/mL onto a Multidish 2×2 Petri Dish (Ridgeview Instruments AB, Sweden) to form a circular drop of about 3 cm diameter in chambers A and C of the dish. […] The plate was loaded onto a […]® Green (Ridgeview Instruments AB) for real-time fluorescence measurement.

human CCR8 [5] = target: T2, human CCR8; experiment: LigandTracer real-time fluorescence, Alexa Fluor 488-labelled TDB on CHO cells expressing human CCR8; 1-to-2 fit, bivalent event
Method: as §2, §3

cyno CCR8 [6] = target: T1, cyno CCR8; experiment: LigandTracer real-time fluorescence, Alexa Fluor 488-labelled TDB on CHO cells expressing cyno CCR8; 1-to-2 fit, monovalent event
Method: as §2, §3

human CCR8 [7] = target: T2, human CCR8; experiment: LigandTracer real-time fluorescence, Alexa Fluor 488-labelled TDB on CHO cells expressing human CCR8; 1-to-2 fit, monovalent event
Method: as §2, §3

cyno CCR8 [8] = target: T1, cyno CCR8; experiment: cellular binding with LigandTracer on CHO cells expressing cyno CCR8, three experiments (same values as the bivalent row of Table 8)
Method: (§4) Untransfected CHO cells were used to subtract the non-specific binding. Specific binding traces were analyzed using TraceDrawer 1.7 (Ridgeview Instruments) software and fit with a 1-to-2 with bulk binding model to determine association (kₐ) and dissociation (kd) rate constants. The equilibrium dissociation constants (KD) for each binding event were calculated as the ratio of the dissociation and association rates, kd/kₐ.
(§5) 1 million CHO cells stably expressing either human or cynomolgus CCR8 (about 60,000 and about 30,000 receptors/cell, respectively) were seeded at a concentration of 1 million cells/mL onto a Multidish 2×2 Petri Dish (Ridgeview Instruments AB, Sweden) to form a circular drop of about 3 cm diameter in chambers A and C of the dish. Untransfected CHO cells were seeded in opposing chambers (B and D) in the same manner. Cells were left undisturbed to adhere for 4 hours. […] The plate was loaded onto a […]® Green (Ridgeview Instruments AB) for real-time fluorescence measurement. […] The Ab dissociation was measured overnight to obtain accurate off-rates. […] Specific binding traces were analyzed using TraceDrawer 1.7 (Ridgeview Instruments) software to determine the association-(kₐ) and dissociation-(kd) rate constants. The equilibrium dissociation constants (KD) for each binding event were calculated as the ratio of the dissociation and association rates, kd/kₐ. […]

human CCR8 [9] = target: T2, human CCR8; experiment: cellular binding with LigandTracer on CHO cells expressing human CCR8, three experiments (same values as the bivalent row of Table 8)
Method: as §4, §5

T2 sequence (P51685 whole entry): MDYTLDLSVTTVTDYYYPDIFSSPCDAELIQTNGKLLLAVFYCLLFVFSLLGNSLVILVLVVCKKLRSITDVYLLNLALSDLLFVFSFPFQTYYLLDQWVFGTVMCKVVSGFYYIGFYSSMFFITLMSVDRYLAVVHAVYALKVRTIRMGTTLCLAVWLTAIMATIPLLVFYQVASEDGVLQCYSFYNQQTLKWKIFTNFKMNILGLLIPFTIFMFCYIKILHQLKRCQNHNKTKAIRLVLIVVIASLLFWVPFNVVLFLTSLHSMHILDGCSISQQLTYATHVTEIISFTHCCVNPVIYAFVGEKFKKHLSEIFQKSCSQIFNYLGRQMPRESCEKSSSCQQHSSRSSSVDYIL
T1 sequence (O97665 other isoform, or with tags, fused parts or gaps): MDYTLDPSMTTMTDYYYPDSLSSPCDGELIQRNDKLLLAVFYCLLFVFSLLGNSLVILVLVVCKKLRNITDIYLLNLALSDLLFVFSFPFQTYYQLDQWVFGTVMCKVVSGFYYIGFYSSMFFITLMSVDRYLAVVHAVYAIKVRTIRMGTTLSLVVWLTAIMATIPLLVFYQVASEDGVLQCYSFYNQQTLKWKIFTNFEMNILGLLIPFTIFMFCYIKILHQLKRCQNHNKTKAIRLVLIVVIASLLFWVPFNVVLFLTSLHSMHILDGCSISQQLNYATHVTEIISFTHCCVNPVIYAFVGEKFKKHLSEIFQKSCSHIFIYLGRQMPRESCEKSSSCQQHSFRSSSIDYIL
T3 sequence (P07766 23-126, stated change not applied, chain 1 of 2): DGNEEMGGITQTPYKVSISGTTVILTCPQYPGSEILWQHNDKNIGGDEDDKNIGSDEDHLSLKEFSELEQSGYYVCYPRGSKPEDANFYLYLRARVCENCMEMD
T3 sequence (P04234 22-105, stated change not applied, chain 2 of 2): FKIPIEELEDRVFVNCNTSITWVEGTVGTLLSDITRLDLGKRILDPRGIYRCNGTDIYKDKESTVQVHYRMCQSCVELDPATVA

Binder | EC50 (cyno CCR8 [1]) | EC50 (human CCR8 [2]) | also measured
B1 | 11.5 nM | 17.1 nM | –
B2 | 6.14 nM | 1.03 nM | –
B3 | 2.24 nM | 0.94 nM | –
B4 | 3.13 nM | 0.66 nM | –
B5 | 7.67 nM | 1.65 nM | –
B6 | 3.39 nM | 1.19 nM | –
B7 | – | – | Kd [3]: 1160 nM; Kd (cyno CCR8 [4]): 0.0228 nM; Kd (human CCR8 [5]): 0.00778 nM; Kd (cyno CCR8 [6]): 1.01 nM; Kd (human CCR8 [7]): 0.484 nM; Kd (cyno CCR8 [8]): 0.023 nM; Kd (human CCR8 [9]): 0.008 nM
